Ends that are not written are not given here.
T1: Human CXCR2 (human, UniProt P25025 1-360)
T1 construct: Some cell lines carry an N-terminal 3xHA tag; also called hCXCR2; huCXCR2
T1 sequence: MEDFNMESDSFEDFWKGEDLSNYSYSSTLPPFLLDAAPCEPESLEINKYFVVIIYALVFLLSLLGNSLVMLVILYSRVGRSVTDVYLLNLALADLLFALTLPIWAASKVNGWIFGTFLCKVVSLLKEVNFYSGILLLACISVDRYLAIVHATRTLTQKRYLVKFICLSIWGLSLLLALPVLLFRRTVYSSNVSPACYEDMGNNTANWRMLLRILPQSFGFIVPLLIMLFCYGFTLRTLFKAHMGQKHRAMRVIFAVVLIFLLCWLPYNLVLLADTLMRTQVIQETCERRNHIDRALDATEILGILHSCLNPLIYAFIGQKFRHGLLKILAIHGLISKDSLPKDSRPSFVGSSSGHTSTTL

T2: Human 1to19 peptide (human)
T2 construct: First 19 N-terminal amino acids of human CXCR2, captured on neutravidin; also called human CXCR2 1 to19 peptide; 1-19 Nter peptide
T2 peptide: MEDFNMESDSFEDFWKGED-biotin


Legend:
Human CXCR2 [1] = target: T1, Human CXCR2; test: FACS, periplasmic extract vs FMAT Blue Gro-α
Protocol: Periplasmic extracts (as described above) were analyzed on FACS for competition with Gro-α in binding to human CXCR2. 2×10⁵ cells were incubated with a ½ dilution of periplasmic extracts in FACS buffer (PBS+10% fetal bovine serum (Sigma, F7524)) for 30 minutes at 4° C. Then, an equal volume of 6 nM of FMAT Blue-labeled human Gro-α in FACS buffer was added and incubation was continued for another 30 minutes at 4° C. in the dark. Cells were then washed three times in FACS buffer and finally resuspended in FACS buffer. Dead cells were stained with propidium iodide (Sigma, P4170). Samples were then analyzed on a FACSarray (BD Biosciences).

Human 1to19 peptide = target: T2, Human 1to19 peptide; test: ELISA, periplasmic extract on biotinylated peptide
Protocol: In another setup, periplasmic extracts were analyzed for binding to human 1 to 19 peptide by ELISA. MaxiSorb plates (Nunc, 430341) were coated for two hours with neutravidin followed by one hour blocking (PBS, 1% casein). Then 100 nM biotinylated human 1 to 19 peptide was added to these plates for one hour (PBS, 0.1% casein, 0.05% tween20) followed by one hour incubation with 10-fold dilutions of periplasmic extracts. Unbound periplasmic extracts were washed away (PBS supplemented with 0.05% tween20) and bound Nanobodies were detected using mouse anti-myc (Roche, 11667149001) followed by rabbit anti-mouse-HRP conjugate (Dakocytomation, P0260). Table 8 summarizes the ratios of the binding signals of anti-CXCR2Nanobodies over an irrelevant control Nanobody.

Human CXCR2 [2] = target: T1, Human CXCR2; test: FACS competition vs 3 nM FMAT-Blue Gro-α
Protocol: Purified monovalent anti-CXCR2Nanobodies were titrated against 3 nM FMAT-Blue-labeled Gro-α in the FACS ligand competition assay on human and cynomolgus CXCR2 (Table 10). On human CXCR2, blocking potencies range between double digit nM and sub-nM whereas on cynomolgus CXCR2, they range between single and double digit nM.

Human CXCR2 [3] = target: T1, Human CXCR2; test: cell-based or functional assay

Row | Binder | FACS Gro-α competition (% inhibition) (Human CXCR2 [1]) [%] | ratio of binding signal relative to blank control (Human 1to19 peptide) [ratio] | % inhibition of max (Human CXCR2 [2]) [%] | IC50 (Human CXCR2 [2]) [nM] | FLIPR % inhibition max (Human CXCR2 [3]) [%] | FLIPR IC50 (GRO-α induced calcium release) (Human CXCR2 [3]) [nM]
1 | 137A8 (VHH, Tested as periplasmic extract only; also called 137A08; not shown: C-terminal c-myc tag and His6 tag coded by the vector) VHH: EVQLVESGGGLVQPGGSLRLSCAASGSTLAYYTVGWFRRAPGKEREGISCISSSDGSTYYADSVKGRFTISRDNAKNTVYLQMNSLKPEDTAVYYCAADRRTDCKKGRVGSGSWGQGTQVTVSS | 55.8 | 1.2 | – | – | – | –
2 | 139D5 (VHH, Tested as periplasmic extract only; also called 139D05; not shown: C-terminal c-myc tag and His6 tag coded by the vector) VHH: EVKLVESGGGLVQAGGSLRLSCALSGRIGSINAMGWYRQVSGQQRELVAVSRSGGSTDIADSVKGRFTISRDNGKNTVYLQMDSLKPEDTAVYYCYAHTSSYSNWRVYNNDYWGQGTQVTVSS | 56.8 | 0.8 | – | – | – | –
3 | 137B7 (VHH, Tested as periplasmic extract (pAX50) and as purified His6-tagged protein (pAX100); also called 137B07; not shown: C-terminal c-myc tag and His6 tag coded by the vector) VHH: EVQLVESGGGLVQPGGSVRLSCVASGIIFRLSALGWTRQGPGKAREWVAGINSDGTTNYADPVKGRFTISRDNAKNTIYLHMDMLKPEDTAVYYCASGKYRGQGTQVTVSS | 90.3 | 1 | 93.5 | 1.11 | 100 | 6.71

Further lines, results first:

Row | FACS Gro-α competition (% inhibition) (Human CXCR2 [1]) [%] | ratio of binding signal relative to blank control (Human 1to19 peptide) [ratio] | % inhibition of max (Human CXCR2 [2]) [%] | IC50 (Human CXCR2 [2]) [nM] | FLIPR % inhibition max (Human CXCR2 [3]) [%] | FLIPR IC50 (GRO-α induced calcium release) (Human CXCR2 [3]) [nM] | Binder
4 | 53.5 | – | – | – | – | – | 145C9 (VHH, Tested as periplasmic extract only; also called 145C09; not shown: C-terminal c-myc tag and His6 tag coded by the vector) VHH: EVQLVESGGGLVQAGGSLRLSCAASGFTFDDYAIGWFRQAPGKERERVSCISGSDGSTYYADSVKGRFTISSDNAKNTVYLQMNNLKPEDTAVYYCAAYWGLTLRLWMPPHRYDYWGQGTQVTVSS
5 | 50.5 | 1.7 | – | – | – | – | 139H2 (VHH, Tested as periplasmic extract only; also called 139H02; not shown: C-terminal c-myc tag and His6 tag coded by the vector) VHH: EVQLVESGGGLVQAGGSLRLSCAASGRTFSNYAMGWFRQATGKEREFVAAINKSGGNTHYAGSVKGRFTISRDNAKNTVYLQMNSLKPRDTAVYYCAASRTNPKPDYWGQGTQVTVSS
